Assay results from patent publication US20250388702A1 (Dana-Farber, published 2025).

Columns and labels:
Experiment in all cases: cell microarray on transfected HEK293 cells, HHLA2-mIgG2a probe, AF647 anti-mouse IgG detection
KIR3DL1 = target: T1, KIR3DL1 (UniProt P43629 22-444, limits assumed)
T1 construct: whole, on cells
Experimental: (§1) A library of ˜5500 full length cDNA clones covering more than 3,500 different plasma membrane proteins was arrayed in duplicate across 13 microarray slides (“slide sets”). Human HEK293 cells were grown above the cDNA clones and reverse-transfected. An expression vector (pIRES-hEGFR-IRES-ZsGreen1) was spotted in quadruplicate on every slide and was used to ensure that a minimal threshold of transfection efficiency had been achieved or exceeded on every slide.
(§2) Two replicate slides were screened for each of the 13 slide sets. Fluorescent images were analyzed and quantitated (for transfection efficiency) using ImageQuant software (GE). A protein ‘hit’ was defined as duplicate spots showing a raised signal compared to background levels. This was achieved by visual inspection using the images gridded on the ImageQuant software.

KIR3DL2 = target: T2, KIR3DL2 (UniProt P43630 22-455, limits assumed)
T2 construct: whole, on cells
Experimental: as §1, §2

KIR2DL1 = target: T3, KIR2DL1 (UniProt P43626 22-348, limits assumed)
T3 construct: whole, on cells
Experimental: as §1, §2

KIR2DL2 = target: T4, KIR2DL2 (UniProt P43627 22-348, limits assumed)
T4 construct: whole, on cells
Experimental: as §1, §2

KIR2DL4 = target: T5, KIR2DL4 (UniProt Q99706 22-377, limits assumed)
T5 construct: whole, on cells
Experimental: as §1, §2

KIR2DL5A = target: T6, KIR2DL5A (UniProt Q8N109 22-375, limits assumed)
T6 construct: whole, on cells
Experimental: as §1, §2

KIR2DL5B = target: T7, KIR2DL5B (UniProt Q8NHK3 22-375, limits assumed)
T7 construct: whole, on cells
Experimental: as §1, §2

Human HHLA2 = target: T8, Human HHLA2 (human, UniProt Q9UM44 23-414)
T8 construct: also called B7-H7; B7-H5
T8 sequence: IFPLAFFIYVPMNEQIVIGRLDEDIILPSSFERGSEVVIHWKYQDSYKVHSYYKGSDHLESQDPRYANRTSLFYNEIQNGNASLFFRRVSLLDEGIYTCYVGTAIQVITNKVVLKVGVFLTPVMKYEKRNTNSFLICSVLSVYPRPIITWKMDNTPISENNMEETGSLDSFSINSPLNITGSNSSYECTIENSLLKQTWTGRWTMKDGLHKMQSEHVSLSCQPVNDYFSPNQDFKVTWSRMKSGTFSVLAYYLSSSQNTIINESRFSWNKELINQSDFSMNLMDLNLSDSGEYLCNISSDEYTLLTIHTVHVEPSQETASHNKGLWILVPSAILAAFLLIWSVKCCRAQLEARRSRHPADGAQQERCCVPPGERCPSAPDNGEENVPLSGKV
Experimental: as §1, §2

EGFR = target: T9, EGFR (human, UniProt P00533 25-1210)
T9 construct: whole, on cells; also called hEGFR
Experimental: as §1, §2

T4 sequence (P43627 22-348 limits assumed): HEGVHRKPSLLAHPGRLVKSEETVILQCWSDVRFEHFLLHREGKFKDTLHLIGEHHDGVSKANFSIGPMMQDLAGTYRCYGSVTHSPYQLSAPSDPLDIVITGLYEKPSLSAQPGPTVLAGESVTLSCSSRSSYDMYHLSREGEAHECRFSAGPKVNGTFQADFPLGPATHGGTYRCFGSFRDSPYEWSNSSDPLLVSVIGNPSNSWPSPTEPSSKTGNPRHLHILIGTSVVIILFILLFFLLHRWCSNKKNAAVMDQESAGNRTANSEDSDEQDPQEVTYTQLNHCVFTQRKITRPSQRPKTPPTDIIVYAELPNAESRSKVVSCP
T1 sequence (P43629 22-444 limits assumed): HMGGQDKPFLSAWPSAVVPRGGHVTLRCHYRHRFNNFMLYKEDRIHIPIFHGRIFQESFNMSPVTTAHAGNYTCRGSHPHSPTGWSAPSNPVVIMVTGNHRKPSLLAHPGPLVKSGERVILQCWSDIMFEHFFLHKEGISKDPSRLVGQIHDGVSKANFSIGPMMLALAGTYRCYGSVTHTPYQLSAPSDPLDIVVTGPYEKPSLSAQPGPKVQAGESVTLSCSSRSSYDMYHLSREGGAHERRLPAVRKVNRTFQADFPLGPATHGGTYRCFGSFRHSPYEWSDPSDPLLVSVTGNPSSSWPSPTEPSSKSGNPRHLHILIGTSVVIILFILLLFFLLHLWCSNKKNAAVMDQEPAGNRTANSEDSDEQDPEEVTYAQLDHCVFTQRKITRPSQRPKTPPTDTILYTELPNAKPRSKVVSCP
T2 sequence (P43630 22-455 limits assumed): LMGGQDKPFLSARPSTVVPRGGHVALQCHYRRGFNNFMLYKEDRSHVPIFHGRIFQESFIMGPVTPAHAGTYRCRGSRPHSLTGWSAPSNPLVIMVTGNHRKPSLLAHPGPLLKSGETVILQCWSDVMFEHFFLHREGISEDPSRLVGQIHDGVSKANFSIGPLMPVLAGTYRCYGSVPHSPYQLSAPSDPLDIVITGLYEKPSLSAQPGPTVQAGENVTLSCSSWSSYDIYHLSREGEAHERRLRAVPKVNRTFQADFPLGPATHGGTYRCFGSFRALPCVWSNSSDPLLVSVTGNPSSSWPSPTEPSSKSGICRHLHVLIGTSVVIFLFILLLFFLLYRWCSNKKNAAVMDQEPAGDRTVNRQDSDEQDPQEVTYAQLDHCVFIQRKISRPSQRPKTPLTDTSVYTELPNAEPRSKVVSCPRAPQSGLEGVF
T7 sequence (Q8NHK3 22-375 limits assumed): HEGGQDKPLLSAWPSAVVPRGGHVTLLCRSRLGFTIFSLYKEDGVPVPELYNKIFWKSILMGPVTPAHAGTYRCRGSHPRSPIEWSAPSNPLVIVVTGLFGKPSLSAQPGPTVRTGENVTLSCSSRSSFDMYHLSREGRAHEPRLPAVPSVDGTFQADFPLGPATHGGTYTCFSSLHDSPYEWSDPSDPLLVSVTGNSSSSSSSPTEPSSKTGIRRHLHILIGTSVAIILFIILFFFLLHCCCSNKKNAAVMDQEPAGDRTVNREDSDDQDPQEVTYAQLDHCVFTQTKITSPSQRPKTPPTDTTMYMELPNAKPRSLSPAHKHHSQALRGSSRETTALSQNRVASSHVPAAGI
T6 sequence (Q8N109 22-375 limits assumed): as the sequence (Q8NHK3 22-375 limits assumed) above, with D152N, S174G counted along it
T5 sequence (Q99706 22-377 limits assumed): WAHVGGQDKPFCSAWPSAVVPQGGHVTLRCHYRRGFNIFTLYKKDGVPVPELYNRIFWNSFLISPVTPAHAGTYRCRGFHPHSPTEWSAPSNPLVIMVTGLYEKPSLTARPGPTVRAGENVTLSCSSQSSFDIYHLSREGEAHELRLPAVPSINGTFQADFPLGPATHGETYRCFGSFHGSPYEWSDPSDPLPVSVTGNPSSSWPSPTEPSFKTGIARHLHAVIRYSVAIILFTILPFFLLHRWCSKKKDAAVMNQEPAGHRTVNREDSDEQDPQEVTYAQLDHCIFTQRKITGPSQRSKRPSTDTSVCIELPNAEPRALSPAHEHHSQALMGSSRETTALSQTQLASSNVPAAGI
T3 sequence (P43626 22-348 limits assumed): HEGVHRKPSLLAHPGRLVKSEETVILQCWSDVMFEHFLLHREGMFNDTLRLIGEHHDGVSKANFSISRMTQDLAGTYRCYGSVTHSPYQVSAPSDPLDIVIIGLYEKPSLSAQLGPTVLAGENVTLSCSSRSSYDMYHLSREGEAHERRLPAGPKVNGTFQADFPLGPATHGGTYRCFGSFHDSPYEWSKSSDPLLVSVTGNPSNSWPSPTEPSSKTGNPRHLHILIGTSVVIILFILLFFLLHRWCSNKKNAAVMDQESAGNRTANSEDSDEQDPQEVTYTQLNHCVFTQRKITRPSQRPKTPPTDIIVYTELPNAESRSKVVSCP

binding result (KIR3DL1): no binding (tested: 20 ug/ml) | binding result (KIR3DL2): no binding (tested: 20 ug/ml) | binding result (KIR2DL1): no binding (tested: 20 ug/ml) | binding result (KIR2DL2): no binding (tested: 20 ug/ml) | binding result (KIR2DL4): no binding (tested: 20 ug/ml) | binding result (KIR2DL5A): no binding (tested: 20 ug/ml) | binding result (KIR2DL5B): no binding (tested: 20 ug/ml) | binding result (Human HHLA2): no binding (tested: 20 ug/ml) | binding result (EGFR): no binding (tested: 20 ug/ml)
B1: Human HHLA2-mIgG2a fusion protein (Fc fusion)
chain: IFPLAFFIYVPMNEQIVIGRLDEDIILPSSFERGSEVVIHWKYQDSYKVHSYYKGSDHLESQDPRYANRTSLFYNEIQNGNASLFFRRVSLLDEGIYTCYVGTAIQVITNKVVLKVGVFLTPVMKYEKRNTNSFLICSVLSVYPRPIITWKMDNTPISENNMEETGSLDSFSINSPLNITGSNSSYECTIENSLLKQTWTGRWTMKDGLHKMQSEHVSLSCQPVNDYFSPNQDFKVTWSRMKSGTFSVLAYYLSSSQNTIINESRFSWNKELINQSDFSMNLMDLNLSDSGEYLCNISSDEYTLLTIHTVHVEPSQETASHN
notes: also called HHLA2-Ig; HHLA2-mouse IgG2a; not shown: mutated at IgG2a L235E, E318A, K320A, K322A
